Test [1] deals with TCTP (translationally controlled tumor protein) (human) (UniProt P13693). Briefly: SPR; Biacore 2000; TCTP amine-coupled on CM5 chip (697 RU); DDX3 injected in two-fold dilutions 0.195 to 100 nM, 30 ul/min; HBS-EP (10 mM HEPES pH 7.2, 150 mM NaCl, 3 mM EDTA, 0.005% Tween 20); 25 C; global Langmuir binding with drifting baseline.
Test [2] shares this target. Briefly: SPR; positive control for the SPR experiments; who was immobilised and the conditions are not told for TSAP6 (Appendix Fig. S2); also run with sertraline and thioridazine. (In SPR one partner is held on a chip, and binding of the other changes the refractive index at the surface.)

Sequence of TCTP (translationally controlled tumor protein) (human) (P13693 whole entry): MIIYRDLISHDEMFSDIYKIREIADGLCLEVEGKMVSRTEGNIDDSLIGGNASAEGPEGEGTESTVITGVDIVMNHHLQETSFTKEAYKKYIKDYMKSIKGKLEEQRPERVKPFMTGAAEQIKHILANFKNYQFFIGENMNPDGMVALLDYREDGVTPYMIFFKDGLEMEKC

Regarding “DDX3 wild-type (from UniProt O00571 1-662)”, in test [1], the dissociation constant (Kd) came out at 68.9 nM. Turning to “TSAP6 (Tumor Suppressor Activated Protein) (from UniProt Q658P3 1-488) (natural protein)”, the Kd in test [2] was determined as 1000 nM.

The Kd is the free concentration of one partner at which half of the binding sites on the other are occupied at equilibrium, for simple one-to-one binding. Lower therefore signals a tighter complex.

The values above are taken from paper PMC11014985, “TCTP regulates genotoxic stress and tumorigenicity via intercellular vesicular signaling” (EMBO Reports, 2024).
